Target: T1, FLAG-PRMT5 (UniProt O14744 1-637)
T1 construct: PRMT5, wild type; Enriched from HEK293T lysate by one FLAG step; cellular partners such as MEP50 may have come along (surmise); also called FLAG-PRMT5^WT; FLAG-tagged PRMT5; source: HEK293T, transfected, immunopurified on FLAG beads and eluted with FLAG peptide
Assay: pull-down; His-FUBP1 (from E. coli) and FLAG-PRMT5 (enriched from HEK293T lysate) in vitro, with the PUBLISH peptide as competitor
Conditions: both partners purified

T1 sequence (O14744 whole entry): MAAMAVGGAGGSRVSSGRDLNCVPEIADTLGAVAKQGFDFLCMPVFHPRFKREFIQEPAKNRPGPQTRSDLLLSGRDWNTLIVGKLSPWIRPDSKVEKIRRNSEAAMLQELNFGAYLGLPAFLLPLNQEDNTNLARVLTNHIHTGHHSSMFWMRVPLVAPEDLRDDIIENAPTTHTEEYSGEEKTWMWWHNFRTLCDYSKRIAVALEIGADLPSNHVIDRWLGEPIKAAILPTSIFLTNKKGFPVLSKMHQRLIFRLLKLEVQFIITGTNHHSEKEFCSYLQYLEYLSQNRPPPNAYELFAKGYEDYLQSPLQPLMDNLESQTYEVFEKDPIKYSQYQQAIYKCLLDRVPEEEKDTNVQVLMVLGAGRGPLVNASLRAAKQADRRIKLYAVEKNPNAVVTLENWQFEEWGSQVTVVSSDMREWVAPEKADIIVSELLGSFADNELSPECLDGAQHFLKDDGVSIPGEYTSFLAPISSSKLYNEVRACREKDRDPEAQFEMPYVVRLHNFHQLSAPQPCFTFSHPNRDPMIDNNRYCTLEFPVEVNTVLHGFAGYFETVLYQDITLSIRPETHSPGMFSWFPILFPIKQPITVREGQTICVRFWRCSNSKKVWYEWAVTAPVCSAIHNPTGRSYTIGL

B1: PRMT5-mediated FUBP1 methylation abolishing (PUBLISH) peptide (peptide, UniProt Q96AE4 353-367, looked up)
peptide: GPGPGGRGRGRGQGN
notes: FUBP1 amino acids 353-367, with R359/R361/R363; For cells it was delivered as BPAE/peptide nanocomplexes; also called PUBLISH^WT; source: synthetic peptide
**Q.** Does B1 bind?
**A.** binds

Source: article PMC11405040, “PRMT5-mediated FUBP1 methylation accelerates prostate cancer progression” (The Journal of Clinical Investigation, 2024)
